Test results published in IntAct's records for PubMed 18154663.

B1: RalBP1-associated Eps domain-containing protein 2 (Homo sapiens), Q8NFH8 (parent)
chain: MEAAAAAAAAAAAAAAAGGGCGSGPPPLLLSEGEQQCYSELFARCAGAAGGGPGSGPPEAARVAPGTATAAAGPVADLFRASQLPAETLHQITELCGAKRVGYFGPTQFYIALKLIAAAQSGLPVRIESIKCELPLPRFMMSKNDGEIRFGNPAELHGTKVQIPYLTTEKNSFKRMDDEDKQQETQSPTMSPLASPPSSPPHYQRVPLSHGYSKLRSSAEQMHPAPYEARQPLVQPEGSSSGGPGTKPLRHQASLIRSFSVERELQDNSSYPDEPWRITEEQREYYVNQFRSLQPDPSSFISGSVAKNFFTKSKLSIPELSYIWELSDADCDGALTLPEFCAAFHLIVARKNGYPLPEGLPPTLQPEYLQAAFPKPKWDCQLFDSYSESLPANQQPRDLNRMEKTSVKDMADLPVPNQDVTSDDKQALKSTINEALPKDVSEDPATPKDSNSLKARPRSRSYSSTSIEEAMKRGEDPPTPPPRPQKTHSRASSLDLNKVFQPSVPATKSGLLPPPPALPPRPCPSQSEQVSEAELLPQLSRAPSQAAESSPAKKDVLYSQPPSKPIRRKFRPENQATENQEPSTAASGPASAATMKPHPTVQKQSSKQKKAIQTAIRKNKEANAVLARLNSELQQQLKEVHQERIALENQLEQLRPVTVL
partner: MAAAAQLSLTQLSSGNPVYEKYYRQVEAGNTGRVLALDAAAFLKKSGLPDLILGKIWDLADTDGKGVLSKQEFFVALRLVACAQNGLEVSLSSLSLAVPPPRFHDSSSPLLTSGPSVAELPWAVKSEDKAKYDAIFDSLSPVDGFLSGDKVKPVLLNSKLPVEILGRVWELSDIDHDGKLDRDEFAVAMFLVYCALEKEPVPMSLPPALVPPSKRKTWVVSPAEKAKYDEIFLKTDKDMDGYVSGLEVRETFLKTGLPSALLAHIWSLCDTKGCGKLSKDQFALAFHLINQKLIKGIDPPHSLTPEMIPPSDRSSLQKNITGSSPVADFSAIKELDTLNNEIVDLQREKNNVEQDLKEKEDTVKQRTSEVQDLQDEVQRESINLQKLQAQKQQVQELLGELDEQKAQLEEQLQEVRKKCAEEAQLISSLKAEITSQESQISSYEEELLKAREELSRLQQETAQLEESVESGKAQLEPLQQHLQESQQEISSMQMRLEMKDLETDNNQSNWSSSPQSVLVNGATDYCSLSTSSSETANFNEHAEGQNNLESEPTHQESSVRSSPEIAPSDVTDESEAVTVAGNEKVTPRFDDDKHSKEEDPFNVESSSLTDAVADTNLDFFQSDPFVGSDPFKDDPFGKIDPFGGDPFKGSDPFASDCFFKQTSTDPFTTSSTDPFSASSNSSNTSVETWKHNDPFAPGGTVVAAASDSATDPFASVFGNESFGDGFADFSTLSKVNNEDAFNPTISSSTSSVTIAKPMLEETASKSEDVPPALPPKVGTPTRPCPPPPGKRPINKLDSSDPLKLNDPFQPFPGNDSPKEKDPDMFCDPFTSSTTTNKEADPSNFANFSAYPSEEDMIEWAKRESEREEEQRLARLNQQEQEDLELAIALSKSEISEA

Legend:
Details in all cases: with eps15_mouse Eps15, P42567
[1] = variants of: B1
[2] = variants of: B1; remark: listed apart in the source
[3] = variants of: B1; remark: listed apart in the source
[4] = variants of: B1; remark: listed apart in the source

effect of a mutation on the interaction [1]	effect of a mutation on the interaction [2]	effect of a mutation on the interaction [3]	effect of a mutation on the interaction [4]	Variant
decreasing interaction	disrupting interaction	–	–	K312A
–	disrupting interaction	decreasing interaction	–	K351A
–	–	–	decreasing interaction	W324A
